Laboratory results: PMC6318328 (2019)
Positions count from the first letter of the chain named. Where no end group is shown, it is not given here. [ ]: non-standard residue; d: D form. Lys(Me3) = C[N+](C)(C)CCCC[C@H](N)C(=O)O; Arg(Me) = CNC(=N)NCCC[C@H](N)C(=O)O

T1: MLL3 ePHD6 I1100L (human, UniProt Q8NEZ4 1055-1144, I1100 of MLL3 to leucine)
T1 sequence: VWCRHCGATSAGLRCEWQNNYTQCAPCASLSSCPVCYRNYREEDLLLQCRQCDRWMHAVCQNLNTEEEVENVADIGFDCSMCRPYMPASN

T2: MLL4_(ePHD6)_(1475–1564) (human, UniProt O14686 1475-1564)
T2 chain: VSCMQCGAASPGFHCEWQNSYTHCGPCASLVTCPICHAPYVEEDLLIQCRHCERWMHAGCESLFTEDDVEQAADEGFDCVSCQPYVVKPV

T3: MLL3_(ePHD6)_(1055–1144) (human, UniProt Q8NEZ4 1055-1144)
T3 chain: T1 sequence with L46I

T4: MLL3 ePHD6 E1097A (human, UniProt Q8NEZ4 1055-1144, E1097A)
T4 sequence: T1 sequence with E43A, L46I


Key:
Test in all cases: ITC
[1] = target: T1, MLL3 ePHD6 I1100L
[2] = target: T2, MLL4_(ePHD6)_(1475–1564)
[3] = target: T3, MLL3_(ePHD6)_(1055–1144)
[4] = target: T4, MLL3 ePHD6 E1097A

| Kd [1] [µM] | Kd [2] [µM] | Kd [3] [µM] | Kd [4] [µM] | Binder |
| --- | --- | --- | --- | --- |
| 34 | 14 | – | – | GKGGA[Lys(Me3)]RHRKV [H4K16me3 peptide] |
| – | 70 | 113 | – | GKGGAK[Arg(Me)]HRKV [histone H4 peptide monomethylated at R17] |
| – | – | – | 65 | GKGGAKRHRKV [histone H4 peptide H4_(11–21)] |
